Here are results for one molecule from paper PMC10836398, “Structural flexibility of Toscana virus nucleoprotein in the presence of a single-chain camelid antibody” (Acta Crystallographica. Section D, Structural Biology, 2024).

The target of this test is T1, Toscana virus nucleoprotein (Toscana virus, UniProt P21701).
T1 construct: Nucleoprotein (N) of Toscana virus, coded by the S segment; Monomeric fractions of N were pooled for complex formation; also called TOSV N; N protein; source: E. coli, purified under non-denaturing conditions (1 M NaCl and 3 M urea in the lysis buffer to remove nucleic acids)
In words: crystal structure; N–VHH complex at 13 mg/ml, hanging drop, 293 K, 0.5 M MES pH 6.5, 25% PEG 2000; space group P4(1)2(1)2, 3.8 Å. The note with it: both partners purified.

T1 sequence (P21701 2-253): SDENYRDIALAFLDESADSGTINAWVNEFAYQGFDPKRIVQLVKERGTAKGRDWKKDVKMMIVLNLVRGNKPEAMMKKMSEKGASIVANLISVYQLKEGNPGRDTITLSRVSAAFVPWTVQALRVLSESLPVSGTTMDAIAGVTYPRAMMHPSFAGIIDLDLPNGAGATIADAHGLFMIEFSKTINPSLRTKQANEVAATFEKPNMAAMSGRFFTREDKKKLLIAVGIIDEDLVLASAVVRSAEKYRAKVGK

B1: single-chain camelid antibody (VHH) targeting the TOSV N protein (VHH)
VHH: QVQLVESGGGSVQAGGSLRLSCAASGDAGRRYCMAWFRQAPGKEREGVAFISTANGRTDYVDSVKGRFTISQNSAKNTVYLQMNSLKPEDTAMYYCASRGYGYLSCSSYSLAAYNYWGQGTQVTVSS
notes: Selected by phage display from a llama immunised with TOSV N; The clone has no printed name; also called nanobody; source: E. coli WK6, periplasmic extract, purified (IMAC)
In the case of B1, the binding result is recorded as “binds”.
